Assay results taken from patent US20070161783A1 (published 2007).
Each block holds one binder with its values, some of them ahead of it.

Assays:
H2L1 = test: SPR
H3L2 = test: SPR
H1L1 = test: SPR
H2L4 = test: SPR
H3L1 = test: SPR
H6L4 = test: SPR
H1L4 = test: SPR
H4L4 = test: SPR
H6L3 = test: SPR
H2L3 = test: SPR
H1L3 = test: SPR
H4L3 = test: SPR
H3L4 = test: SPR
H3L3 = test: SPR
H4L1 = test: SPR
[1] = molecular target: T1, extracellular domain of Ep-CAM (UniProt P16422 24-265, DIGylated (sites not given)); test: AlphaScreen competition
T1 chain: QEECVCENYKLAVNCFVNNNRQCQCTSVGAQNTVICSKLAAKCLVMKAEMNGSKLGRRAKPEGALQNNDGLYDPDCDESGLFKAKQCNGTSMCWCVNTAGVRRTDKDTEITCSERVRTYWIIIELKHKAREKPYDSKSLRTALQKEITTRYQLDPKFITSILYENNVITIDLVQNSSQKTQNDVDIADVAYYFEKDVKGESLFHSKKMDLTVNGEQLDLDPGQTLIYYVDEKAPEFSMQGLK

FcγRIIIa (158V form) = FcγRIIIa (158V form) (human, UniProt P08637 17-208); test: AlphaScreen competition
[2] = molecular target: H3.77_L3 I332E/G236A Hybrid
[3] = molecular target: H3.77_L3 S239D/I332E Hybrid
[4] = molecular target: H3.77_L3 S239D/H268E Hybrid
[5] = molecular target: H3.77_L3 I332E/H268E Hybrid
[6] = molecular target: H3.77_L3 S239D/I332E/G236A Hybrid
[7] = molecular target: H3.77_L3 S239D/I332E/A330Y Hybrid
[8] = molecular target: H3.77_L3 I332E/H268E/G236A Hybrid

Chain of FcγRIIIa (158V form) (P08637 17-208 F176V): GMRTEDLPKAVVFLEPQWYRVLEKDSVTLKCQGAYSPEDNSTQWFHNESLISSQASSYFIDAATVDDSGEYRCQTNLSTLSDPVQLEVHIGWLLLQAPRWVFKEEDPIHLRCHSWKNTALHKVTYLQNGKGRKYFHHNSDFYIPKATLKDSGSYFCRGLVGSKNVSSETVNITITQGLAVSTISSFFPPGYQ

B2: 17-1A H0 (antibody)
chain: QVQLQQSGAELVRPGTSVKVSCKASGYAFTNYLIEWVKQRPGQGLEWIGVINPGSGGTNYNEKFKGKATLTADKSSSTAYMQLSSLTSDDSAVYFCARDGPWFAYWGQGTLVTVSA
IC50 [1]: 333 nM
IC50 (FcγRIIIa (158V form)): 32.7 nM

B4: R131 FcgRIIa (receptor)
chain: QAAAPPKAVLKLEPPWINVLQEDSVTLTCQGARSPESDSIQWFHNGNLIPTHTQPSYRFKANNNDSGEYTCQTGQTSLSDPVHLTVLSEWLVLQTPHLEFQEGETIMLRCHSWKDKPLVKVTFFQNGKSQKFSRLDPTFSIPQANHSHSGDYHCTGNIGYTLFSSKPVTITVQVPSMGSSSPMG
Kd [2]: 54.4 nM
Kd (H3.77_L3 WT Hybrid): 413 nM
Kd [3]: 78.9 nM
Kd [4]: 42.7 nM
Kd [5]: 86.1 nM
Kd [6]: 13.7 nM
Kd [7]: 88.9 nM

Second part, the binder after the results:

Kd (H2L1): 75.4 nM
Kd (H3L2): 615 nM
Kd (H1L1): 77.8 nM
Kd (H2L4): 66.6 nM
Kd (H3L1): 385 nM
Kd (H6L4): 5200 nM
Kd (H1L4): 58.9 nM
Kd (H4L4): 3000 nM
Kd (H6L3): 4800 nM
Kd (H2L3): 63 nM
Kd (H1L3): 54.1 nM
Kd (H4L3): 1310 nM
Kd (H3L4): 335 nM
Kd (H3L3): 292 nM
Kd (H4L1): 6600 nM
B1: EpCAM (Fc fusion)
chain: T1 chain

Kd [2]: 557 nM
Kd (H3.77_L3 WT Hybrid): 635 nM
Kd [3]: 142 nM
Kd [4]: 81.5 nM
Kd [5]: 117 nM
Kd [6]: 146 nM
Kd [7]: 144 nM
Kd [8]: 154 nM
B3: FcgRIIb (receptor)
chain: TPAAPPKAVLKLEPQWINVLQEDSVTLTCRGTHSPESDSIQWFHNGNLIPTHTQPSYRFKANNNDSGEYTCQTGQTSLSDPVHLTVLSEWLVLQTPHLEFQEGETIVLRCHSWKDKPLVKVTFFQNGKSKKFSRSDPNFSIPQANHSHSGDYHCTGNIGYTLYSSKPVTITVQAP
